# In paper doi:10.1101/2025.11.07.687251 (2025):
# B1: GFP-ATG13(1–230):ATG101 [human] / GST-WIPI2 [not stated] (parent complex)
# chain 1: METDLNSQDRKDLDKFIKFFALKTVQVIVQARLGEKICTRSSSSPTGSDWFNLAIKDIPEVTHEAKKALAGQLPAVGRSMCVEISLKTSEGDSMELEIWCLEMNEKCDKEIKVSYTVYNRLSLLLKSLLAITRVTPAYRLSRKQGHEYVILYRIYFGEVQLSGLGEGFQTVRVGTVGTPVGTITLSCAYRINLAFMSTRQFERTPPIMGIIIDHFVDRPYPSSSPMHPCN
# chain 2: MNCRSEVLEVSVEGRQVEEAMLAVLHTVLLHRSTGKFHYKKEGTYSIGTVGTQDVDCDFIDFTYVRVSSEELDRALRKVVGEFKDALRNSGGDGLGQMSLEFYQKKKSRWPFSDECIPWEVWTVKVHVVALATEQERQICREKVGEKLCEKIINIVEVMNRHEYLPKMPTQSEVDNVFDTGLRDVQPYLYKISFQITDALGTSVTTTMRRLIKDTLAL
# chain 3: MNLASQSGEAGAGQLLFANFNQDNTSLAVGSKSGYKFFSLSSVDKLEQIYECTDTEDVCIVERLFSSSLVAIVSLKAPRKLKVCHFKKGTEICNYSYSNTILAVKLNRQRLIVCLEESLYIHNIRDMKVLHTIRETPPNPAGLCALSINNDNCYLAYPGSATIGEVQVFDTINLRAANMIPAHDSPLAALAFDASGTKLATASEKGTVIRVFSIPEGQKLFEFRRGVKRCVSICSLAFSMDGMFLSASSNTETVHIFKLETVKEKPPEEPTTWTGYFGKVLMASTSYLPSQVTEMFNQGRAFATVRLPFCGHKNICSLATIQKIPRLLVGAADGYLYMYNLDPQEGGECALMKQHRLDGSLETTNEILDSASHDCPLVTQTYGAAAGKAYTDDLGAVGGACLEDEASALRLDEDSEHPPMILRTD
# B2: GFP-ATG13(1–230):ATG101 [human] / GST-WIPI3 [not stated] (parent complex)
# chain 1: B1 chain 1
# chain 2: B1 chain 2
# chain 3: not shown
# Variants of: B1
# Experiment: GST beads binding assay (microscopy-based, Glutathione Sepharose beads); 20 mM HEPES (pH 7.5), 200 mM NaCl, 2 mM MgCl2, 1 mM TCEP; room temperature, 60 minutes; read off a plot
row,response,Variant
1,~21000 A.U.,"chain 1 H214D, chain 1 F215D"

# Variants of: B2
# Experiment: GST beads binding assay (microscopy-based, Glutathione Sepharose beads); 0.5 μM GST bait; 20 mM HEPES (pH 7.5), 200 mM NaCl, 2 mM MgCl2, 1 mM TCEP; room temperature, 60 minutes; read off a plot
row,response,Variant
1,~12000 A.U.,"chain 1 H214D, chain 1 F215D"
